This note sets out measurements from patent publication US20090271892A1, “LYSOPHOSPHATIDIC ACID ACYLTRANSFERASE GENES AND USES THEREOF” (priority 2006, published 2009).

The target in data set [1] is T1, Litchi sinensis LPAAT (LsLPAAT, pEW108), mutant of SEQ ID No 2 in the last C-terminal amino acids, SEQ ID No 1 (Litchi chinensis, UniProt A0A346D9Z1).
T1 construct: araBAD promoter, E. coli JC201 microsomes
Kind of data set: LPAAT assay, kinetic parameters with C18:1-CoA, E. coli JC201 microsomes. Type of data set: biochemical. The following applies: C18:1-CoA 0-50 μM, 10 min, 30° C., pH7.5, N = 4. The source says:
(§1) FIG. 1: Kinetics of phosphatidic acid synthesis using ^14C-C18:1-CoA on ^3H-LPA as substrates and Brassica napus (SEQ ID No 5) and Litchi microsomal (SEQ ID NO 1) LPAATs as enzymes. Duplicate measurements for one experiment are shown.
The inventors have identified one putative Lysophosphatidic Acid-Acyl Transferase from Lychee (SEQ ID No 2). They also have obtained a mutated protein derived from this protein, which is depicted as SEQ ID No 1.
Plasmids pEW108 and 117 comprising genes coding for SEQ ID No 1 and SEQ ID No 2 respectively under the control of the araBAD promoter (Guzman, L-M. et al. (1995) J Bacteriology 177: 4121-4130) were prepared and used to transform and complement an E. coli strain. The araBAD promoter is induced by arabinose, repressed by glucose and is used in the art to express polynucleotides in a controlled manner.
The following experiments were performed with the Escherichia coli JC201 mutant strain, which is temperature conditional in endogenous LPAAT activity and able to grow at 30° C. but not at 44° C. (genotype plsC, described in Coleman, 1990 J. Biol. Chem., 265 (28), 17215-21.). These bacteria were kept at −80° C. as 1 ml glycerol stocks. […] Optical density was measured at 600 nm and each flask was then cultivated for 6 hours at 30 and 44° C. respectively in order to check by optical density measurement that bacterial growth occurs at 30° C. but not at 44° C. […]

Data set [2] can be described thus: LPAAT assay with C18:1-CoA as substrate (microsomes of transformed E. coli). It is filed as biochemical. As to conditions: expressed in transformed E. coli mutant strains; FIG. 1. The protocol:
The ^3H-oleoyl-lysophosphatidic acid (^3HLPA, ref. NET1100; 600 μM, 28 mCi mmol^−1) and ^14C-Oleoyl-CoA (^14CC18:1-CoA, ref. NET651A; 300 μM, 11 mCi mmol^−1) radio-labeled substrates were purchased from Perkin Elmer. Assays were carried out in a final volume of 300 μl and contained Tris/HCl (100 mM, pH7.5), Triton X-100 (0.01% w/v), BSA (1 mg/ml), ascorbic acid (10 mM), EDTA (2 mM), 100 μl LPA and 50 μl acyl-CoA. The reaction was started by the addition of 30 μl of microsomes, and conducted in a glass vial placed in a Eppendorf Thermomixer-compact apparatus (30° C., 350 rpm). The reaction was stopped after incubation (from 0 to 120 min) by addition of 720 μl of chloroform/methanol (1:1). […]
(§2) Radioactivity measurement was performed in 10 mL Ultimagold (ref. 6013329, Perkin Elmer) using a liquid scintillation analyzer (Tri-Carb 2100TR, Packard) for determination of ^3H and ^14C separately.
A first LPAAT assay was performed as described above in order to determine optimal LPAAT activity using ^14CC18:1-CoA as substrate: • Effect of incubation time was tested for 0, 1, 3, 5, 10, 30, 60 and 120 min with 50 μM ^14CC18:1-CoA at 30° C. • In order to determine LPAAT kinetic parameters, the effect of C18:1-CoA concentration was tested as described above. […] For all experimental conditions, the mean of 2 values is calculated. […]

Data set [3] in a line: Competitive LPAAT assay using C18:1-CoA and C19CA-CoA. Type of data set: biochemical. The protocol:
The ^3H-oleoyl-lysophosphatidic acid (^3HLPA, ref. NET1100; 600 μM, 28 mCi mmol^−1) and ^14C-Oleoyl-CoA (^14CC18:1-CoA, ref. NET651A; 300 μM, 11 mCi mmol^−1) radio-labeled substrates were purchased from Perkin Elmer. Assays were carried out in a final volume of 300 μl and contained Tris/HCl (100 mM, pH7.5), Triton X-100 (0.01% w/v), BSA (1 mg/ml), ascorbic acid (10 mM), EDTA (2 mM), 100 μl LPA and 50 μl acyl-CoA. The reaction was started by the addition of 30 μl of microsomes, and conducted in a glass vial placed in a Eppendorf Thermomixer-compact apparatus (30° C., 350 rpm). The reaction was stopped after incubation (from 0 to 120 min) by addition of 720 μl of chloroform/methanol (1:1). To separate the phases, 280 μl of 1M KCl in 0.2 M H3PO4 were added and the whole mixture was vortexed for 10 s before centrifugation at 1300 g, 5 min at room temperature. The upper aqueous phase was discarded and 2×25 μl of the remaining organic phase was spotted on to silica gel 60 ÅF254 TLC plates (ref. 1.05715, Merck) and developed in chloroform/methanol/NH4OH/water (65:25:0.9:3). The phosphatidic acid spot was visualized by iodine revelation and collected for scintillation counting.
as §2
[…] For all experimental conditions, data are derived from three experiments with 4 replicates each.
LPAAT selectivity for the two substrates is calculated as follows:
Selectivity for C18:1-CoA: S^C18:1-CoA=^14C/^3H
Selectivity for C19CA-CoA: S^C19:1CA-CoA=(^3H—^14C)/^3H
in which, ^3H and ^14C are the molar quantity of produced PA and the molar quantity of ^14C18:1 incorporated into this PA. These molar quantities are calculated from the corresponding ^3H and ^14C radioactivity levels measured in the phosphatidic acid spots scraped from TLC plates. Selectivity is expressed as the fraction of the specific fatty acid incorporated out of the total incorporated at the sn-2 position.

Substrate in data set [4]: CCCCCCCC/C=C\CCCCCCCC(=O)SCCNC(=O)CCNC(=O)[C@H](O)C(C)(C)COP(=O)(O)OP(=O)(O)OC[C@H]1O[C@@H](n2cnc3c(N)ncnc32)[C@H](O)[C@@H]1OP(=O)(O)O
Kind of data set: LPAAT assay, kinetic parameters with C18:1-CoA, E. coli JC201 microsomes. Type of data set: biochemical, Brassica napus. The following applies: other: C18:1-CoA 0-50 μM, 10 min, 30° C., pH7.5, N = 3, pH 7.5. The protocol:
as §1
The following experiments were performed with the Escherichia coli JC201 mutant strain, which is temperature conditional in endogenous LPAAT activity and able to grow at 30° C. but not at 44° C. (genotype plsC, described in Coleman, 1990 J. Biol. Chem., 265 (28), 17215-21.). These bacteria were kept at −80° C. as 1 ml glycerol stocks. For E. coli JC201 transformation, one glycerol stock was diluted in 15 mL of Luria-Bertani (ref. L3022, Sigma) liquid medium and cultivated overnight at 30° C. Then, 1 mL was used to inoculate flasks containing 15 mL of fresh liquid LB medium. Optical density was measured at 600 nm and each flask was then cultivated for 6 hours at 30 and 44° C. respectively in order to check by optical density measurement that bacterial growth occurs at 30° C. but not at 44° C. One of the cultures obtained at 30° C. was then centrifuged at 4500 g/4° C. for 10 min. Supernatant was discarded and the pellet was kept on ice for 2 hours. The pellet was washed three time with 15 mL sterile distilled water and then twice with 15 mL distilled sterile water containing 10% (weight/volume) glycerol (centrifugation condition: 4500 g/4° C./10 min). […]

T1 sequence (A0A346D9Z1 entry or part of it, change not shown): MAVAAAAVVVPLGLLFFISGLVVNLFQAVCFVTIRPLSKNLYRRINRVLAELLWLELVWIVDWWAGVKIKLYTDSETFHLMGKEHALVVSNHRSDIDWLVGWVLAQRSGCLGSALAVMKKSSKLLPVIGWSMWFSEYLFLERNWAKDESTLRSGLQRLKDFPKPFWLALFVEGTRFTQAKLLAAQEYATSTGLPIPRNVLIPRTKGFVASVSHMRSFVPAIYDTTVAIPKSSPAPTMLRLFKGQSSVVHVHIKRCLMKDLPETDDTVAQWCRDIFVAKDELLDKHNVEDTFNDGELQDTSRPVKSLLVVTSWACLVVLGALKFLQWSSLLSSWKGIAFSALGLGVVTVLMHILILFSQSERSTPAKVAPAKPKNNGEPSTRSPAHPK

In the case of `CCCCCCCC/C=C\CCCCCCCC(=O)SCCNC(=O)CCNC(=O)[C@H](O)C(C)(C)COP(=O)(O)OP(=O)(O)OC[C@H]1O[C@@H](n2cnc3c(N)ncnc32)[C@H](O)[C@@H]1OP(=O)(O)O` [C18:1-CoA, Oleoyl-CoA], the Km (usually the substrate concentration at which the rate is half of its maximum) in data set [1] is 7.3 ± 4.1 µM. The Vmax (commonly the rate approached at saturating substrate) in data set [1] (apparent Vmax, per mg total protein) is reported as 1557 ± 616 pmol · mg prot^−1 · min^−1.

B1: Brassica napus LPAAT (BnLPAAT, RAT1), SEQ ID No 5 (Brassica napus) (protein)
chain: MAMAAAVIVPLGILFFISGLVVNLLQAVCYVLVRPLSKNTYRKINRVVAETLWLELVWIVDWWAGVKIQVFADDETFNRMGKEHALVVCNHRSDIDWLVGWILAQRSGCLGSALAVMKKSSKFLPVIGWSMWFSEYLFLERNWAKDESTLKSGLQRLNDFPRPFWLALFVEGTRFTEAKLKAAQEYAASSELPVPRNVLIPRTKGFVSAVSNMRSFVPAIYDMTVAIPKTSPPPTMLRLFKGQPSVVHVHIKCHSMKDLPESEDEIAQWCRDQFVTKDALLDKHIAADTFAGQKEQNIGRPIKSLAVVLSWACLLTLGAMKFLHWSNLFSSWKGIALSALGLGIITLCMQILIRSSQSERSTPAKVAPAKPKDNHQSGPSSQTEVEEKQK
In the case of B1, the “esterification of 14C-C18:1-CoA on 3H-LPA (presence of PA in lipid fraction)” value in data set [2] is given as “fully functional”. Further, in data set [3] (competitive assays using C19CA-CoA and C18:1-CoA), the “use of C19CA-CoA as substrate” value is on record as “can use C19CA-CoA as substrate”. In addition, in data set [3] (very little incorporation of 19:0CA up to 50 μM), the “selectivity for C19CA-CoA (in words)” value is “very low selectivity”. Moreover, in data set [4], the Michaelis constant (Km) was 10.6 ± 6.7 µM and the Vmax came out at 0.0056 µmol/min/mg.
